Laboratory results: patent publication US20230095569A1 (ANTENGENE BIOLOGICS, published 2023)
Changes are numbered by the printed parent chain.

B1: chAb20 (antibody, V domains shown)
VH: EVMLVESGGGLVKPGGSLKLSCVASGFTFSSYTMSWVRQTPEKRLEWVATIIGGYGNTYYSDSVKGRITISRDSAKNTLYLQMISLRSEDTALYYCTRLGQTQRNAMDYWGQGTSVTVSS
VL: DILMTQSPSSLSVSAGEKVTMNCKSSQSLLNSGNQKNYLAWYQQKPGQPPKLLIYGASTRESGVPDRFTGSGSGTDFTLTISSVQAEDLAVYYCQNDYYYPFTFGAGTKLEL
B2: chAb10 (antibody, V domains shown)
VH: B1 VH with V23A, I52S, G53V, G54I, Y55G, S61V, I68F, S74K, I84S, T97A
VL: DIVMTQSPSSLSVSAGEKVTMSCKSSQSLLNSGNQKNYLAWYQQKPGQPPKLLIYGASTRESGVPDRFTGSGSGTDFTLTISSVQAEDLAVYYCQNDYSYPLTFGAGTKLELK
B3: chAb15 (antibody, V domains shown)
VH: EVMLVESGGDLVKPGGSLKLSCAASGFTFSTYTMSWVRQTPEKRLEWVATIVGGGGYTYYLDSVKGRFTISRDNAKNTLYLQMISLRSEDTALYYCARMGLTQRNALDYWGQGTSITVSS
VL: B2 VL with A15E, M21L, S22N, L30F, S73F, Y98H, S99T, T108A
B4: Ab10 (antibody, V domains shown)
VH: B1 VH with V23A, I52S, G53V, G54I, Y55G, S61V, I68F, S74K, I84S, T97A
VL: B2 VL
notes: mouse monoclonal (hybridoma)

Columns and labels:
[1] = target: T1, human Claudin18.2 (CLDN18.2) (human, UniProt P56856 1-261); experiment: cell-based or functional assay
[2] = target: T1, human Claudin18.2 (CLDN18.2); experiment: FACS on CHOK1-18.2 cells;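 on FACS MFI: antibody binding to the cells detected with a fluorescently labelled secondary antibody and read out as median fluorescence intensity by flow cytometry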
[3] = target: T1, human Claudin18.2 (CLDN18.2); experiment: cell-based or functional assay; remark: listed apart in the source
[4] = target: T1, human Claudin18.2 (CLDN18.2); experiment: FACS on CHOK1-18.2 cells, antibody at 50 µg/ml
[5] = target: T1, human Claudin18.2 (CLDN18.2); experiment: FACS on GAXC031 cells, antibody at 50 µg/ml
[6] = target: T1, human Claudin18.2 (CLDN18.2); experiment: FACS on GAXC031 cells
[7] = target: T1, human Claudin18.2 (CLDN18.2); experiment: cell-based or functional assay; remark: listed apart in the source
[8] = target: T2, human Claudin18.1 (CLDN18.1) (human, UniProt P56856 1-261); experiment: FACS on CHOK1-18.1 cells;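 further: test antibody binding to the cells detected by flow cytometry using a fluorescent dye-labelled secondary antibody, read out as median fluorescence intensity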
T2 construct: whole, on cells; also called human Claudine18.1
Method: (§1) The specificity and cross-reactivity of these subclones were confirmed with FACs analysis. […] Fluorescent dye-conjugated secondary antibody was used to detect the binding of the primary antibody with the cells. Median fluorescence intensity (MFI) was measured by FACs analysis.

[9] = target: T1, human Claudin18.2 (CLDN18.2); experiment: FACS on CHOK1-18.2 cells; remark: listed apart in the source;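 on FACS MFI: antibody binding to the cells detected with a fluorescently labelled secondary antibody and read out as median fluorescence intensity by flow cytometry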
Method: as §1

[10] = target: T2, human Claudin18.1 (CLDN18.1); experiment: FACS (FIGS. 1A and 1B)

Binder	CDC EC50 [1] [nM]	Max CDC induced tumor cell killing (% of control) [1]	EC50 [2] [nM]	ADCC EC50 [3] [nM]	Max tumor cell killing (% of control), ADCC [3]	MAX MFI [4]	MAX MFI [5]	EC50 [6] [nM]	IC50 of indirect ADC cytotoxicity [7] [nM]	Max inhibition % [7] [%]	FACS MFI [8]	FACS MFI [9]	binding result [10]
B1	8.82	73 % of control	3.88	4.14	62.9 % of control	65700	6260	42.9	0.47	92.8	–	–	–
B2	2.69	82.7 % of control	2.27	1.68	55.2 % of control	80400	6940	29.2	0.24	92.8	–	–	–
B3	8.15	77.4 % of control	4.64	2.65	36.5 % of control	94000	6110	31.9	0.38	92.4	–	–	–
B4	–	–	–	–	–	–	–	–	–	–	80.8	8400	no binding
